Here are results for 14 molecules from US20250197488A1 (MABWELL SHANGHAI BIOSCIENCE, published 2025).

The target in test [1] is T1, IL-11 (Cat. 12225-HNCE, Sino Biological Inc.) (UniProt P20809 22-199, limits assumed).
T1 sequence (looked up): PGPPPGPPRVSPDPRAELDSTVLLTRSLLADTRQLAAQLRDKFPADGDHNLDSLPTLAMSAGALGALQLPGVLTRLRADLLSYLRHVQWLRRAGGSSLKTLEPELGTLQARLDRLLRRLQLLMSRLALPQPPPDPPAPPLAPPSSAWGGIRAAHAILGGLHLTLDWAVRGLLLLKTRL
Briefly: cell-based or functional assay.

The target in test [2] is T2, human IL-11 (AAH12506.1, Pro22-Leu199) (human, UniProt P20809 22-199).
T2 construct: The range Pro22-Leu199 counts on AAH12506.1; The Octet runs say only 'human IL-11'; also called hIL-11
T2 chain: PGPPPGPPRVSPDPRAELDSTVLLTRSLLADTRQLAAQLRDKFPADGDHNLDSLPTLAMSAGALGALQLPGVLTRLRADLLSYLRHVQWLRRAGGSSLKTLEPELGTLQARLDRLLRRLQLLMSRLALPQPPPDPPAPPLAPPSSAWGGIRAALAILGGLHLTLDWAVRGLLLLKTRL
Briefly: BLI (Octet), antibody captured, human IL-11 in solution. In short, it runs like this: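 On a Fortebio Octet QKe System, antibodies in HBS-EP+ buffer were captured on anti-mouse IgG Fc or anti-human Fc biosensors. Human IL-11 was flowed over at 300 nM in the same buffer, with a 300-second association followed by a 300-second dissociation. Blank-subtracted curves were fitted to a 1:1 Langmuir binding model to give kon, koff and Kd.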
On the technique in general: In BLI a coated tip is dipped into the sample, and binding shifts an interference pattern.

Usually Kd stands for the free concentration of one partner at which half of the binding sites on the other are occupied at equilibrium, for simple one-to-one binding. The low end stands for tighter binding, the high end for weaker binding. By koff is commonly meant a measure of how fast the partners let go of each other. Low readings indicate a long-lived complex, high ones a short-lived complex. Usually kon stands for the rate constant with which the complex forms. A high value points to faster complex formation.

B1: hz18A10-VHm6 + hz18A10-VLm19 (antibody, V domains shown)
VH: EVQLVQSGAEVKKPGASVKVSCKASGYTFNHYDMDWVRQAPGQGLEWMGTIYPGNGDTSYNQKFKGRVTMTRDTSTSTVYMELSSLRSEDTAVYYCARGDLYALDYWGQGTLVTVSS
VL: DIQMTQSPSSLSASVGDRVTITCKASQSVYRDVAWYQQKPGKAPKLLIYSASNRYTGVPSRFSGSGSGTDFTFTISSLQPEDIATYYCQHDYSSPYTFGQGTKLEIK
notes: Constant regions not restated for this antibody
Turning to B1, the “Blocking activity (IC50), STAT3-luc reporter” value (shortened to “Blocking activity (IC50)”) in test [1] worked out at 0.017 µg/mL. Besides, in test [2], binding was characterised by a dissociation constant (Kd) of 0.213 nM, the koff amounted to 0.000194 s⁻¹ and the kon is 911000 M⁻¹ s⁻¹.

B2: hz18A10-VHm18 + hz18A10-VLm19 (antibody, V domains shown)
VH: EVQLVQSGAEVKKPGASVKVSCKASGYTFTHYNMDWVRQAPGQGLEWMGTIYPGEGDTSYNQKFKGRVTMTRDTSTSTVYMELSSLRSEDTAVYYCARGDLYALDYWGQGTLVTVSS
VL: DIQMTQSPSSLSASVGDRVTITCKASQSVYRDVAWYQQKPGKAPKLLIYSASNRYTGVPSRFSGSGSGTDFTFTISSLQPEDIATYYCQHDYSSPYTFGQGTKLEIK
notes: as for B1
As for B2, in test [1], the “Blocking activity (IC50)” value is 0.79 µg/mL. In addition, in test [2], the affinity, expressed as Kd, was 0.313 nM; the koff stood at 0.000354 s⁻¹; the kon was 1.13e+06 M⁻¹ s⁻¹.

B3: hz18A10-VHm11 + hz18A10-VLm19 (antibody, V domains shown)
VH: EVQLVQSGAEVKKPGASVKVSCKASGYTFTHYNMDWVRQAPGQGLEWMGTIYPGNGDTSYNQKFKGRVTMTRDTSTSTVYMELSSLRSEDTAVYYCARGDLYALDYWGQGTLVTVSS
VL: DIQMTQSPSSLSASVGDRVTITCKASQSVYRDVAWYQQKPGKAPKLLIYSASNRYTGVPSRFSGSGSGTDFTFTISSLQPEDIATYYCQHDYSSPYTFGQGTKLEIK
notes: as for B1
B3: in test [1], the “Blocking activity (IC50)” value was 0.112 µg/mL. In test [2], the Kd was 0.138 nM, the koff stood at 0.000119 s⁻¹ and the kon turned out to be 862000 M⁻¹ s⁻¹.

B4: hz18A10-VHm20 + hz18A10-VLm19 (antibody, V domains shown)
VH: EVQLVQSGAEVKKPGASVKVSCKASGYTFTHYNMDWVRQAPGQGLEWMGTIYPGQGDTSYNQKFKGRVTMTRDTSTSTVYMELSSLRSEDTAVYYCARGDLYALDYWGQGTLVTVSS
VL: DIQMTQSPSSLSASVGDRVTITCKASQSVYRDVAWYQQKPGKAPKLLIYSASNRYTGVPSRFSGSGSGTDFTFTISSLQPEDIATYYCQHDYSSPYTFGQGTKLEIK
notes: as for B1
With B4, the “Blocking activity (IC50)” value in test [1] was 0.061 µg/mL. In test [2], this molecule registered a Kd of 0.22 nM, a koff of 0.000227 s⁻¹ and a kon of 1.03e+06 M⁻¹ s⁻¹.

B5: hz18A10-VHm17 + hz18A10-VLm19 (antibody, V domains shown)
VH: EVQLVQSGAEVKKPGASVKVSCKASGYTFTHYDMDWVRQAPGQGLEWMGTIYPGEGDTSYNQKFKGRVTMTRDTSTSTVYMELSSLRSEDTAVYYCARGDLYALDYWGQGTLVTVSS
VL: DIQMTQSPSSLSASVGDRVTITCKASQSVYRDVAWYQQKPGKAPKLLIYSASNRYTGVPSRFSGSGSGTDFTFTISSLQPEDIATYYCQHDYSSPYTFGQGTKLEIK
notes: as for B1
B5: the “Blocking activity (IC50)” value in test [1] amounted to 0.013 µg/mL. Further, in test [2], the Kd amounted to 0.00708 nM, the koff was found to be 8.23e-06 s⁻¹ and the kon was found to be 1.16e+06 M⁻¹ s⁻¹.

B6: hz18A10-VHm12 + hz18A10-VLm19 (antibody, V domains shown)
VH: EVQLVQSGAEVKKPGASVKVSCKASGYTFTHYDMDWVRQAPGQGLEWMGTIYPGNGDTSYNQKFKGRVTMTRDTSTSTVYMELSSLRSEDTAVYYCARGDLYALDYWGQGTLVTVSS
VL: DIQMTQSPSSLSASVGDRVTITCKASQSVYRDVAWYQQKPGKAPKLLIYSASNRYTGVPSRFSGSGSGTDFTFTISSLQPEDIATYYCQHDYSSPYTFGQGTKLEIK
notes: as for B1
In the case of B6, the “Blocking activity (IC50)” value in test [1] is 0.011 µg/mL. Moreover, in test [2], binding was characterised by a dissociation constant (Kd) of 0.185 nM, the koff was found to be 0.000173 s⁻¹ and the association rate constant (kon) came to 934000 M⁻¹ s⁻¹.

B7: hz18A10-VHm15 + hz18A10-VLm19 (antibody, V domains shown)
VH: EVQLVQSGAEVKKPGASVKVSCKASGYTFTHYSMDWVRQAPGQGLEWMGTIYPGNGDTSYNQKFKGRVTMTRDTSTSTVYMELSSLRSEDTAVYYCARGDLYALDYWGQGTLVTVSS
VL: DIQMTQSPSSLSASVGDRVTITCKASQSVYRDVAWYQQKPGKAPKLLIYSASNRYTGVPSRFSGSGSGTDFTFTISSLQPEDIATYYCQHDYSSPYTFGQGTKLEIK
notes: as for B1
Consider B7, for which the “Blocking activity (IC50)” value in test [1] came to 0.511 µg/mL. In test [2], the Kd came out at 0.346 nM, the koff worked out at 0.000263 s⁻¹ and the kon turned out to be 760000 M⁻¹ s⁻¹.

B8: hz18A10-VHm9 + hz18A10-VLm19 (antibody, V domains shown)
VH: EVQLVQSGAEVKKPGASVKVSCKASGYTFTTYDMSWVRQAPGQGLEWMGTIYPGNGDTSYNQKFKGRVTMTRDTSTSTVYMELSSLRSEDTAVYYCARGDLYALDYWGQGTLVTVSS
VL: DIQMTQSPSSLSASVGDRVTITCKASQSVYRDVAWYQQKPGKAPKLLIYSASNRYTGVPSRFSGSGSGTDFTFTISSLQPEDIATYYCQHDYSSPYTFGQGTKLEIK
notes: as for B1
As to B8, in test [1], the “Blocking activity (IC50)” value was determined as 0.99 µg/mL. Moreover, in test [2], the affinity, expressed as Kd, was 0.538 nM; the koff stood at 0.000448 s⁻¹; the kon is 833000 M⁻¹ s⁻¹.

B9: hz18A10-VHm7 + hz18A10-VLm19 (antibody, V domains shown)
VH: EVQLVQSGAEVKKPGASVKVSCKASGYTFTTYDIDWVRQAPGQGLEWMGTIYPGNGDTSYNQKFKGRVTMTRDTSTSTVYMELSSLRSEDTAVYYCARGDLYALDYWGQGTLVTVSS
VL: DIQMTQSPSSLSASVGDRVTITCKASQSVYRDVAWYQQKPGKAPKLLIYSASNRYTGVPSRFSGSGSGTDFTFTISSLQPEDIATYYCQHDYSSPYTFGQGTKLEIK
notes: as for B1
B9: the “Blocking activity (IC50)” value in test [1] was determined as 1.22 µg/mL. Also, in test [2], the affinity, expressed as Kd, was 0.105 nM; the koff worked out at 0.000113 s⁻¹; the kon was 1.08e+06 M⁻¹ s⁻¹.

B10: hz18A10-VHm10 + hz18A10-VLm19 (antibody, V domains shown)
VH: EVQLVQSGAEVKKPGASVKVSCKASGYTFNHYNMDWVRQAPGQGLEWMGTIYPGNGDTSYNQKFKGRVTMTRDTSTSTVYMELSSLRSEDTAVYYCARGDLYALDYWGQGTLVTVSS
VL: DIQMTQSPSSLSASVGDRVTITCKASQSVYRDVAWYQQKPGKAPKLLIYSASNRYTGVPSRFSGSGSGTDFTFTISSLQPEDIATYYCQHDYSSPYTFGQGTKLEIK
notes: as for B1
As to B10, in test [1], the “Blocking activity (IC50)” value worked out at 0.136 µg/mL. In test [2], this molecule gave a Kd of 0.235 nM, a koff of 0.000216 s⁻¹ and a kon of 917000 M⁻¹ s⁻¹.

B11: hz18A10-VHm8 + hz18A10-VLm19 (antibody, V domains shown)
VH: EVQLVQSGAEVKKPGASVKVSCKASGYTFTTYDMHWVRQAPGQGLEWMGTIYPGNGDTSYNQKFKGRVTMTRDTSTSTVYMELSSLRSEDTAVYYCARGDLYALDYWGQGTLVTVSS
VL: DIQMTQSPSSLSASVGDRVTITCKASQSVYRDVAWYQQKPGKAPKLLIYSASNRYTGVPSRFSGSGSGTDFTFTISSLQPEDIATYYCQHDYSSPYTFGQGTKLEIK
notes: as for B1
In the case of B11, the “Blocking activity (IC50)” value in test [1] came out at 8.64 µg/mL. In test [2], this molecule had a Kd of 1.44 nM, a koff of 0.0011 s⁻¹ and a kon of 760000 M⁻¹ s⁻¹.

B12: hz18A10-VHm13 + hz18A10-VLm19 (antibody, V domains shown)
VH: EVQLVQSGAEVKKPGASVKVSCKASGYTFTHYEMDWVRQAPGQGLEWMGTIYPGNGDTSYNQKFKGRVTMTRDTSTSTVYMELSSLRSEDTAVYYCARGDLYALDYWGQGTLVTVSS
VL: DIQMTQSPSSLSASVGDRVTITCKASQSVYRDVAWYQQKPGKAPKLLIYSASNRYTGVPSRFSGSGSGTDFTFTISSLQPEDIATYYCQHDYSSPYTFGQGTKLEIK
notes: as for B1
On to B12, for which the “Blocking activity (IC50)” value in test [1] came out at 0.338 µg/mL. Further, in test [2], the Kd is 0.203 nM, the koff is 0.000148 s⁻¹ and the kon worked out at 729000 M⁻¹ s⁻¹.

B13: hz18A10-VHm14 + hz18A10-VLm19 (antibody, V domains shown)
VH: EVQLVQSGAEVKKPGASVKVSCKASGYTFTHYQMDWVRQAPGQGLEWMGTIYPGNGDTSYNQKFKGRVTMTRDTSTSTVYMELSSLRSEDTAVYYCARGDLYALDYWGQGTLVTVSS
VL: DIQMTQSPSSLSASVGDRVTITCKASQSVYRDVAWYQQKPGKAPKLLIYSASNRYTGVPSRFSGSGSGTDFTFTISSLQPEDIATYYCQHDYSSPYTFGQGTKLEIK
notes: as for B1
In the case of B13, the “Blocking activity (IC50)” value in test [1] was 1.03 µg/mL. For the same molecule, in test [2], binding was put at a Kd of 0.678 nM, the koff was found to be 0.000485 s⁻¹ and the kon is 716000 M⁻¹ s⁻¹.

B14: hz18A10-VHm16 + hz18A10-VLm19 (antibody, V domains shown)
VH: EVQLVQSGAEVKKPGASVKVSCKASGYTFTHYDMDWVRQAPGQGLEWMGTIYPGNADTSYNQKFKGRVTMTRDTSTSTVYMELSSLRSEDTAVYYCARGDLYALDYWGQGTLVTVSS
VL: DIQMTQSPSSLSASVGDRVTITCKASQSVYRDVAWYQQKPGKAPKLLIYSASNRYTGVPSRFSGSGSGTDFTFTISSLQPEDIATYYCQHDYSSPYTFGQGTKLEIK
notes: as for B1
For the molecule B14, the “Blocking activity (IC50)” value in test [1] amounted to 0.034 µg/mL. In addition, in test [2], the dissociation constant (Kd) is 0.0956 nM, the koff amounted to 0.00012 s⁻¹ and the kon was 1.26e+06 M⁻¹ s⁻¹.
